Source: patent US20260240907A1 (published 2026)
Substitutions are numbered along the chain they refer to.

T1: KRAS G12D peptide on HLA-A*11:01 (human)
T1 peptide: VVVGADGVGK

T2: KRAS G12V peptide on HLA-A*02:01 (human)
T2 peptide: KLVVVGAVGV

B1: TCR6 (TCR, V domains shown)
Valpha: AQTVTQSQPEMSVQEAETVTLSCTYDTSESDYYLFWYKQPPSRQMILVIRQEAYKQQNATENRFSVNFQKAAKSFSLKISDSQLGDAAMYFCAYTNSGNTPLVFGKGTRLSVIA
Vbeta: DAGVIQSPRHEVTEMGQEVTLRCKPISGHDYLFWYRQTMMRGLELLIYFNNNVPIDDSGMPEDRFSAKMPNASFSTLKIQPSEPRDSAVYFCASKPGPRSWREGAFFGQGTRLTVV
B2: TCR4 (TCR, V domains shown)
Valpha: GEDVEQSLFLSVREGDSSVINCTYTDSSSTYLYWYKQEPGAGLQLLTYIFSNMDMKQDQRLTVLLNKKDKHLSLRIADTQTGDSAIYFCAERRGNMLTFGGGTRLMVKP
Vbeta: NAGVTQTPKFRILKIGQSMTLQCTQDMNHNYMYWYRQDPGMGLKLIYYSVGAGITDKGEVPNGYNVSRSTTEDFPLRLELAAPSQTSVYFCASSRTSGLTDTQYFGPGTRLTVL
B3: TCR1 (TCR, V domains shown)
Valpha: AQKVTQAQTEISVVEKEDVTLDCVYETRDTTYYLFWYKQPPSGELVFLIRRNSFDEQNEISGRYSWNFQKSTSSFNFTITASQVVDSAVYFCALSEVTGAGSYQLTFGKGTKLSVIP
Vbeta: DGGITQSPKYLFRKEGQNVTLSCEQNLNHDAMYWYRQDPGQGLRLIYYSQIVNDFQKGDIAEGYSVSREKKESFPLTVTSAQKNPTAFYLCASSIGAGQHNSPLHFGNGTRLTVT
B4: TCR5 (TCR, V domains shown)
Valpha: ILNVEQSPQSLHVQEGDSTNFTCSFPSSNFYALHWYRWETAKSPEALFVMTLNGDEKKKGRISATLNTKEGYSYLYIKGSQPEDSATYLCASADGANNLFFGTGTRLTVIP
Vbeta: SAVISQKPSRDICQRGTSLTIQCQVDSQVTMMFWYRQQPRQSLTLIATANQGSEATYESGFVIDKFPISRPNLTFSTLTVSNMSPEDSSIYLCSVGPSGTGPGYTFGSGTRLTVV
B5: TCR2 (TCR, V domains shown)
Valpha: AQKVTQAQTEISVVEKEDVTLDCVYETRDTTYYLFWYKQPPSGELVFLIRRNSFDEQNEISGRYSWNFQKSTSSFNFTITASQVVDSAVYFCALSEGSNYKLTFGKGTLLTVNP
Vbeta: EAGVAQSPRYKIIEKRQSVAFWCNPISGHATLYWYQQILGQGPKLLIQFQNNGVVDDSQLPKDRFSAERLKGVDSTLKIQPAKLEDSAVYLCASSSTGGTGETQYFGPGTRLLVL
B6: TCR3 (TCR, V domains shown)
Valpha: AQKITQTQPGMFVQEKEAVTLDCTYDTSDPSYGLFWYKQPSSGEMIFLIYQGSYDQQNATEGRYSLNFQKARKSANLVISASQLGDSAMYFCVGNEKLTFGTGTRLTIIP
Vbeta: KAGVTQTPRYLIKTRGQQVTLSCSPISGHRSVSWYQQTPGQGLQFLFEYFSETQRNKGNFPGRFSGRQFSNSRSEMNVSTLELGDSALYLCASSLATGGYNSPLHFGNGTRLTVT
B7: TCR8 (TCR, V domains shown)
Valpha: GEDVEQSLFLSVREGDSSVINCTYTDSSSTYLYWYKQEPGAGLQLLTYIFSNMDMKQDQRLTVLLNKKDKHLSLRIADTQTGDSAIYFCAESIRDTDKLIFGTGTRLQVFP
Vbeta: GAVVSQHPSRVICKSGTSVKIECRSLDFQATTMFWYRQFPKKSLMLMATSNEGSKATYEQGVEKDKFLINHASLTLSTLTVTSAHPEDSSFYICSARDTSGTTRNEQFFGPGTRLTVL
B8: TCR15 (TCR, V domains shown)
Valpha: B7 Valpha with E91D, S92F, I93L
Vbeta: GAVVSQHPSWVICKSGTSVKIECRSLDFQATTMFWYRQFPKQSLMLMATSNEGSKATYEQGVEKDKFLINHASLTLSTLTVTSAHPEDSSFYICSARDRTSTDTQYFGPGTRLTVL
B9: TCR9 (TCR, V domains shown)
Valpha: GEDVEQSLFLSVREGDSSVINCTYTDSSSTYLYWYKQEPGAGLQLLTYIFSNMDMKQDQRLTVLLNKKDKHLSLRIADTQTGDSAIYFCAEIPGDSSYKLIFGSGTRLLVRP
Vbeta: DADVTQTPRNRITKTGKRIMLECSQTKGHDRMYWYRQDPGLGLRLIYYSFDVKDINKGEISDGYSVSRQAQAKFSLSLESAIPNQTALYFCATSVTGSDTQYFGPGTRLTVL
B10: TCR14 (TCR, V domains shown)
Valpha: AQKITQTQPGMFVQEKEAVTLDCTYDTSDPSYGLFWYKQPSSGEMIFLIYQGSYDQQNATEGRYSLNFQKARKSANLVISASQLGDSAMYFCAMRGMDSSYKLIFGSGTRLLVRP
Vbeta: DVKVTQSSRYLVKRTGEKVFLECVQDMDHENMFWYRQDPGLGLRLIYFSYDVKMKEKGDIPEGYSVSREKKERFSLILESASTNQTSMYLCATRTGQQAGSKDTDTQYFGPGTRLTVL
B11: TCR10 (TCR, V domains shown)
Valpha: GEDVEQSLFLSVREGDSSVINCTYTDSSSTYLYWYKQEPGAGLQLLTYIFSNMDMKQDQRLTVLLNKKDKHLSLRIADTQTGDSAIYFCAEMKDTDKLIFGTGTRLQVFP
Vbeta: DGGITQSPKYLFRKEGQNVTLSCEQNLNHDAMYWYRQDPGQGLRLIYYSQIVNDFQKGDIAEGYSVSREKKESFPLTVTSAQKNPTAFYLCASTQVGTGELFFGEGSRLTVL
B12: TCR13 (TCR, V domains shown)
Valpha: B11 Valpha with M92R, K93R
Vbeta: GAVVSQHPSWVICKSGTSVKIECRSLDFQATTMFWYRQFPKQSLMLMATSNEGSKATYEQGVEKDKFLINHASLTLSTLTVTSAHPEDSSFYICSAWGANTGELFFGEGSRLTVL
B13: TCR11 (TCR, V domains shown)
Valpha: B11 Valpha
Vbeta: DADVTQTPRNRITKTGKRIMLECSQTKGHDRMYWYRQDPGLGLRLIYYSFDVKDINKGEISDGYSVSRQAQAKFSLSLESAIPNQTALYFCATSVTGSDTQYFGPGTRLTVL
B14: TCR12 (TCR, V domains shown)
Valpha: B11 Valpha with M92I, K93R, D96G, T102Q, R105T, F109K
Vbeta: DVKVTQSSRYLVKRTGEKVFLECVQDMDHENMFWYRQDPGLGLRLIYFSYDVKMKEKGDIPEGYSVSREKKERFSLILESASTNQTSMYLCASSRQGTDTQYFGPGTRLTVL
B15: TCR16 (TCR, V domains shown)
Valpha: DQQVKQNSPSLSVQEGRISILNCDYTNSMFDYFLWYKKYPAEGPTFLISISSIKDKNEDGRFTVFLNKSAKHLSLHIVPSQPGDSAVYFCAVNRDDKIIFGKGTRLHILP
Vbeta: DTGVSQDPRHKITKRGQNVTFRCDPISEHNRLYWYRQTLGQGPEFLTYFQNEAQLEKSRLLSDRFSAERPKGSFSTLEIQRTEQGDSAMYLCASSSELAGGINEQFFGPGTRLTVL

Target: T1, KRAS G12D peptide on HLA-A*11:01
Test: multimer staining

Binding result, recognises:
B1, B2, B3, B4, B5, B6

Target: T2, KRAS G12V peptide on HLA-A*02:01
Test: multimer staining

Binding result, recognises:
B7, B8, B9, B10, B11, B12, B13, B14, B15
